Test system: F1*sub RNA substrate (template-directed ligation)
Test: fraction ligated after 30 min (ligated reads / total reads); higher = more ligase activity; sequences stand for … in GAGACCGCAACTGAAAAGTTGT…AGTTCTGCACGTAGAAGCAAAAGGC
Conditions: 42 °C
Method in brief: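 Oligo-pool templates underwent PCR amplification, T7 transcription and gel purification to yield ribozyme variants. Gel-separated ligated and unligated bands were converted to complementary DNA with barcoded primers and sequenced on a MiSeq, keeping core bases of quality ≥20. The ratio of ligated reads to total reads gave the fraction ligated for every variant.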

Sequence	fraction ligated
TATCACTTGTGAAGCACTTTGGATGGGTTGA [3d1720]	0.845
TATCACTTGTGAGACACTTTGGATGGGTTGA [3d1718]	0.841
TATCACTTGTGTAAAACTTTGGATGGGTTGA [3d1744]	0.856
TATCACTTGTGTAAACACTTGGATGGGTTGA [3d1747]	0.816
TATCACTTGTGTAAACACTTTGATGGGTTGA [3d1748]	0.831
TATCACTTGTGTAAACACTTTGGAGGGTTGA [3d1750]	0.0713
TATCACTTGTGTAAACACTTTGGATGGGTTA [3d1752]	0.805
TATCACTTGTGTAAACACTTTGGATGGGTTG [3d1753]	0.859
TATCACTTGTGTAAACACTTTGGATGGTTGA [3d1751]	0.328
TATCACTTGTGTAAACACTTTGGTGGGTTGA [3d1749]	0.0929
TATCACTTGTGTAAACATTTGGATGGGTTGA [3d1746]	0.833
TATCACTTGTGTAAACCTTTGGATGGGTTGA [3d1745]	0.807
TATCACTTGTGTAACACTTTGGATGGGTTGA [3d1732]	0.841
TATCACTTGTGTAAGAACTTGGATGGGTTGA [3d1765]	0.84
TATCACTTGTGTAAGAACTTTGATGGGTTGA [3d1766]	0.834
TATCACTTGTGTAAGAACTTTGGAGGGTTGA [3d1768]	0.0385
TATCACTTGTGTAAGAACTTTGGATGGGTTA [3d1770]	0.771
TATCACTTGTGTAAGAACTTTGGATGGGTTG [3d1771]	0.85
TATCACTTGTGTAAGAACTTTGGATGGTTGA [3d1769]	0.0688
TATCACTTGTGTAAGAACTTTGGTGGGTTGA [3d1767]	0.0854
TATCACTTGTGTAAGAATTTGGATGGGTTGA [3d1764]	0.863

Sequence	fraction ligated
TATCACTTGTGTAAGACACTGGATGGGTTGA [3d1786]	0.792
TATCACTTGTGTAAGACACTTGATGGGTTGA [3d1787]	0.8
TATCACTTGTGTAAGACACTTGGAGGGTTGA [3d1789]	0.011
TATCACTTGTGTAAGACACTTGGATGGGTTA [3d1791]	0.349
TATCACTTGTGTAAGACACTTGGATGGGTTG [3d1792]	0.801
TATCACTTGTGTAAGACACTTGGATGGTTGA [3d1790]	0.0286
TATCACTTGTGTAAGACACTTGGTGGGTTGA [3d1788]	0.0212
TATCACTTGTGTAAGACACTTTATGGGTTGA [3d1793]	0.0875
TATCACTTGTGTAAGACACTTTGAGGGTTGA [3d1795]	0.0251
TATCACTTGTGTAAGACACTTTGATGGGTTA [3d1797]	0.0515
TATCACTTGTGTAAGACACTTTGATGGGTTG [3d1798]	0.544
TATCACTTGTGTAAGACACTTTGATGGTTGA [3d1796]	0.0289
TATCACTTGTGTAAGACACTTTGGAGGGTTA [3d1804]	0.0394
TATCACTTGTGTAAGACACTTTGGAGGGTTG [3d1805]	0.0238
TATCACTTGTGTAAGACACTTTGGAGGTTGA [3d1803]	0.0314
TATCACTTGTGTAAGACACTTTGGATGGGTT [3d1808]	0.615
TATCACTTGTGTAAGACACTTTGGATGGGTTA [2d192]	0.823
TATCACTTGTGTAAGACACTTTGGATGGGTTG [2d193]	0.845
TATCACTTGTGTAAGACACTTTGGATGGGTTGA [1d10]	0.859
TATCACTTGTGTAAGACACTTTGGATGGTTA [3d1806]	0.101
TATCACTTGTGTAAGACACTTTGGATGGTTG [3d1807]	0.115

Sequence	fraction ligated
TATCACTTGTGTAAGACACTTTGGATGGTTGA [2d191]	0.198
TATCACTTGTGTAAGACACTTTGGGGGTTGA [3d1799]	0.0501
TATCACTTGTGTAAGACACTTTGGTGGGTTA [3d1801]	0.0254
TATCACTTGTGTAAGACACTTTGGTGGGTTG [3d1802]	0.0157
TATCACTTGTGTAAGACACTTTGGTGGTTGA [3d1800]	0.0267
TATCACTTGTGTAAGACACTTTGTGGGTTGA [3d1794]	0.00464
TATCACTTGTGTAAGACATTGGATGGGTTGA [3d1779]	0.848
TATCACTTGTGTAAGACATTTGATGGGTTGA [3d1780]	0.494
TATCACTTGTGTAAGACATTTGGAGGGTTGA [3d1782]	0.0398
TATCACTTGTGTAAGACATTTGGATGGGTTA [3d1784]	0.822
TATCACTTGTGTAAGACATTTGGATGGGTTG [3d1785]	0.838
TATCACTTGTGTAAGACATTTGGATGGTTGA [3d1783]	0.169
TATCACTTGTGTAAGACATTTGGTGGGTTGA [3d1781]	0.0614
TATCACTTGTGTAAGACCTTGGATGGGTTGA [3d1772]	0.856
TATCACTTGTGTAAGACCTTTGATGGGTTGA [3d1773]	0.819
TATCACTTGTGTAAGACCTTTGGAGGGTTGA [3d1775]	0.137
TATCACTTGTGTAAGACCTTTGGATGGGTTA [3d1777]	0.81
TATCACTTGTGTAAGACCTTTGGATGGGTTG [3d1778]	0.812
TATCACTTGTGTAAGACCTTTGGATGGTTGA [3d1776]	0.204
TATCACTTGTGTAAGACCTTTGGTGGGTTGA [3d1774]	0.157
TATCACTTGTGTAAGACTTTGGATGGGTTGA [3d1754]	0.868

Sequence	fraction ligated
TATCACTTGTGTAAGCACTTGGATGGGTTGA [3d1757]	0.805
TATCACTTGTGTAAGCACTTTGATGGGTTGA [3d1758]	0.811
TATCACTTGTGTAAGCACTTTGGAGGGTTGA [3d1760]	0.121
TATCACTTGTGTAAGCACTTTGGATGGGTTA [3d1762]	0.831
TATCACTTGTGTAAGCACTTTGGATGGGTTG [3d1763]	0.851
TATCACTTGTGTAAGCACTTTGGATGGTTGA [3d1761]	0.256
TATCACTTGTGTAAGCACTTTGGTGGGTTGA [3d1759]	0.117
TATCACTTGTGTAAGCATTTGGATGGGTTGA [3d1756]	0.851
TATCACTTGTGTAAGCCTTTGGATGGGTTGA [3d1755]	0.76
TATCACTTGTGTAGAACTTTGGATGGGTTGA [3d1734]	0.822
TATCACTTGTGTAGACACTTGGATGGGTTGA [3d1737]	0.826
TATCACTTGTGTAGACACTTTGATGGGTTGA [3d1738]	0.824
TATCACTTGTGTAGACACTTTGGAGGGTTGA [3d1740]	0.0783
TATCACTTGTGTAGACACTTTGGATGGGTTA [3d1742]	0.828
TATCACTTGTGTAGACACTTTGGATGGGTTG [3d1743]	0.863
TATCACTTGTGTAGACACTTTGGATGGGTTGA [2d181]	0.871
TATCACTTGTGTAGACACTTTGGATGGTTGA [3d1741]	0.252
TATCACTTGTGTAGACACTTTGGTGGGTTGA [3d1739]	0.105
TATCACTTGTGTAGACATTTGGATGGGTTGA [3d1736]	0.883

From the supplement of paper PMC6755084
